According to patent publication US20050152916A1:
“And” between values parts separate entries of the source, which are not always exact repeats. Equal entries are not always repeated. Values belong to the substance of their own block, whether it stands above or below them.

How the values were obtained:
[1] = target: L^d on cells loaded with QL9 peptide (mouse) (UniProt P01887)
[2] = target: recombinant biotinylated L^d immobilized on a support, loaded with QL9 peptide (mouse) (UniProt P01887)
[3] = target: 2C T-cell receptor (on T-cells of 2C TCR transgenic mice) (mouse); test: staining of purified CD8+ lymph node cells of 2C mice
[4] = target: 2C T-cell receptor (on T-cells of 2C TCR transgenic mice) (mouse); test: flow cytofluorometry of purified 2C TCR transgenic lymph node T-cells
[5] = target: recombinant biotinylated L^d immobilized on avidin-coated sheep red blood cells (mouse); test: flow cytofluorometry of L^d-coated SRBC with anti-L^d antibody 30.5.7 (FIG. 8)

Substance: 2C T-cell receptor (on T-cells of 2C TCR transgenic mice)
percent of lymphocytes included in rosettes [1]: 30% and 40% | percent of lymphocytes included in rosettes [2]: 30% and 40%

Substance: monoclonal antibody 1B2 (anti-clonotypic antibody to the 2C T-cell receptor)
percent of cells positive for staining [3]: > 95% | percent of cells positive for staining [4]: 97% and 98%

percent of cells labeled [5]: 99.8%
Substance: monoclonal antibody 30.5.7 (anti-L^d)
